{
  "source": "paper PMC2749490",
  "system": "CC(C)C[C@H](NC(=O)[C@H](CO)NC(=O)[C@H](C)NC(=O)[C@H](CCCNC(=N)N)NC(=O)[C@H](CCCNC(=N)N)NC(=O)[C@@H](N)CC(C)C)C(=O)NCC(=O)O",
  "assay_type": "biochemical",
  "conditions": "other: from the noncompetitive inhibition model fit; pH 7.4",
  "data": [
    {"substance": "PKA (Homo sapiens)", "values": [
      {"measurement": "Km", "result": 12, "unit": "µM"}
    ]}
  ]
}
